From patent US6558913

Target: factor Xa-activated factor V(Q506) (UniProt P12259)
UniProt P12259, sequence (P12259 29-737 R534Q, chain 1 of 2): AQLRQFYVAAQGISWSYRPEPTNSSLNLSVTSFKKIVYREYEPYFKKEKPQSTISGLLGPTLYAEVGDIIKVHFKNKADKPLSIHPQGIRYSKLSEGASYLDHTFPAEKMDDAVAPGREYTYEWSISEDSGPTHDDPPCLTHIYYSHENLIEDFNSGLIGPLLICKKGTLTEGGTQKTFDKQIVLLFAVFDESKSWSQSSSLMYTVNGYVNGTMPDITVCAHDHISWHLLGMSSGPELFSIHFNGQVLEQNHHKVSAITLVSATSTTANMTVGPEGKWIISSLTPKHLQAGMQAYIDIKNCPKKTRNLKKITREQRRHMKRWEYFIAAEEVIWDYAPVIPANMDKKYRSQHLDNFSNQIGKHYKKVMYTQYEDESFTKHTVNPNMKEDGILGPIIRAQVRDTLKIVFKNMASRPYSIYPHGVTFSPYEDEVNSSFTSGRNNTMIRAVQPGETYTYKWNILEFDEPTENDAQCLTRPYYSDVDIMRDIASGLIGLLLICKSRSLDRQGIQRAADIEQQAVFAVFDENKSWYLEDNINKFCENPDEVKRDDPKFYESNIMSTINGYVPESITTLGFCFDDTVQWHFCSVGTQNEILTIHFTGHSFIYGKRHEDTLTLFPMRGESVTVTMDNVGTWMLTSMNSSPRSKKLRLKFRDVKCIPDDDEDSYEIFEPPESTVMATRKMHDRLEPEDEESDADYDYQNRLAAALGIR
UniProt P12259, sequence (P12259 1047-2224, chain 2 of 2): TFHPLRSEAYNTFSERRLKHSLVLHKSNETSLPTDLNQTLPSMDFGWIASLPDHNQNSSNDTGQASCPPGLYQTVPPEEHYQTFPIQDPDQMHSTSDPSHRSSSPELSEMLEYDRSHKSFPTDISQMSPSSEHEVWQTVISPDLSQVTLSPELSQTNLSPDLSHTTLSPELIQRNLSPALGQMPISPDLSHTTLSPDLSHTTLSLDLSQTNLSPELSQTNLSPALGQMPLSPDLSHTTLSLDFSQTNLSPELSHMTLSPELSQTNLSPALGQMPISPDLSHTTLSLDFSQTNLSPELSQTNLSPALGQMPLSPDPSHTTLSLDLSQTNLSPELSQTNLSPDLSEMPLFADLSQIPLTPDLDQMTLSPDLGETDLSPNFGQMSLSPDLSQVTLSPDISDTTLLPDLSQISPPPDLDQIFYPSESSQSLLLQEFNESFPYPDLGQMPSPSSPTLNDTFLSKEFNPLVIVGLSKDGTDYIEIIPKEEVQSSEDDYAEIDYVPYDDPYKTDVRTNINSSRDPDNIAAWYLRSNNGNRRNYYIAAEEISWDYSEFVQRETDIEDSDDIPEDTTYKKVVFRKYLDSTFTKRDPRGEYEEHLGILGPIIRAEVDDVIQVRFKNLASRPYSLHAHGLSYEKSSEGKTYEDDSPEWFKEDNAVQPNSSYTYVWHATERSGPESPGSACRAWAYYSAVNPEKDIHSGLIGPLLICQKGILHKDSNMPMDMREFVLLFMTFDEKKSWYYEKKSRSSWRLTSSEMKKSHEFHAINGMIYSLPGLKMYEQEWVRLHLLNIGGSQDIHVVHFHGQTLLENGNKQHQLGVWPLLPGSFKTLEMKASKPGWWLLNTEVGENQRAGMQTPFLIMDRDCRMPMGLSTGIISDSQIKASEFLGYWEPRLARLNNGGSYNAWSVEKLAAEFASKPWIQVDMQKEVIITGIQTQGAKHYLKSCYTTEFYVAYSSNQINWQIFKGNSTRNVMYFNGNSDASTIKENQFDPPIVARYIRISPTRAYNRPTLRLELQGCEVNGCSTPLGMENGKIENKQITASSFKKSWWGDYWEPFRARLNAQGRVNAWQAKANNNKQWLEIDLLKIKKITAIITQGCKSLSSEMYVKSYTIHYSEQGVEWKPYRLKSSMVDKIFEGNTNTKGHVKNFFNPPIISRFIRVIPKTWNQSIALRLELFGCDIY

## activated protein C
  factor Va activity over time after addition of APC (inactivation by APC): the replacement of Arg-506 by Gln only prevents the inactivation of the Xa-activated form of factor V by APC (FIG. 8)
